According to US7220554B2, “Methods for identifying inhibitors” (priority 2003, dated 2007):

B1: APOBEC3G-Myc: fusion of human APOBEC3G with Myc epitope and 6×His tag, SEQ ID NO: 2 (protein)
chain: MKPHFRNTVERMYRDTFSYNFYNRPILSRRNTVWLCYEVKTKGPSRPPLDAKIFRGQVYSELKYHPEMRFFHWFSKWRKLHRDQEYEVTWYISWSPCTKCTRDMATFLAEDPKVTLTIFVARLYYFWDPDYQEALRSLCQKRDGPRATMKIMNYDEFQHCWSKFVYSQRELFEPWNNLPKYYILLHIMLGEILRHSMDPPTFTFNFNNEPWVRGRHETYLCYEVERMHNDTWVLLNQRRGFLCNQAPHKHGFLEGRHAELCFLDVIPFWKLDLDQDYRVTCFTSWSPCFSCAQEMAKFISKNKHVSLCIFTARIYDDQGRCQEGLRTLAEAGAKISIMTYSEFKHCWDTFVDHQGCPFQPWDGLDEHSQDLSGRLRAILQNQENFEQKLISEEDLNMHTGHHHHHH
modifications: Synthetic construct human APOBEC3G fused to Myc
B2: APOBEC3G-luciferase (protein)
chain: MKPHFRNTVERMYRDTFSYNFYNRPILSRRNTVWLCYEVKTKGPSRPPLDAKIFRGQVYSELKYHPEMRFFHWFSKWRKLHRDQEYEVTWYISWSPCTKCTRDMATFLAEDPKVTLTIFVARLYYFWDPDYQEALRSLCQKRDGPRATMKIMNYDEFQHCWSKFVYSQRELFEPWNNLPKYYILLHIMLGEILRHSMDPPTFTFNFNNEPWVRGRHETYLCYEVERMHNDTWVLLNQRRGFLCNQAPHKHGFLEGRHAELCFLDVIPFWKLDLDQDYRVTCFTSWSPCFSCAQEMAKFISKNKHVSLCIFTARIYDDQGRCQEGLRTLAEAGAKISIMTYSEFKHCWDTFVDHQGCPFQPWDGLDEHSQDLSGRLRAILQNQENKLSMVTDAKNIKKGPAPFYPLEDGTAGEQLHKAMKRYALVPGTIAFTDAHIEVDITYAEYFEMSVRLAEAMKRYGLNTNHRIVVCSENSLQFFMPVLGALFIGVAVAPANDIYNERELLNSMGISQPTVVFVSKKGLQKILNVQKKLPIIQKIIIMDSKTDYQGFQSMYTFVTSHLPPGFNEYDFVPESFDRDKTIALIMNSSGSTGLPKGVALPHRTACVRFSHARDPIFGNQIIPDTAILSVVPFHHGFGMFTTLGYLICGFRVVLMYRFEEELFLRSLQDYKIQSALLVPTLFSFFAKSTLIDKYDLSNLHEIASGGAPLSKEVGEAVAKRFHLPGIRQGYGLTETTSAILITPEGDDKPGAVGKVVPFFEAKVVDLDTGKTLGVNQRGELCVRGPMIMSGYVNNPEATNALIDKDGWLHSGDIAYWDEDEHFFIVDRLKSLIKYKGYQVAPAELESILLQHPNIFDAGVAGLPDDDAGELPAAVVVLEHGKTMTEKEIVDYVASQVTTAKKLRGGVVFVDEVPKGLTGKLDARKIREILIKAKKGGKIAV
modifications: Synthetic construct human APOBEC3G fused to luciferase

How the values were obtained:
HIV-gpt(Δvif) = experiment: Titers of HIV-gpt(Δvif) virions made in 293T or COS7 cells, infectivity in HeLa-CD4 cells; format: cell-based, HIV-1; conditions: for antiviral activity of chimera: titer of virions from 293T cells in the absence of Vif: FIG. 12A
Description: (§1) To analyze the antiviral activity of pcDNA3.1-APOBEC3G-Myc, human 293T and African green monkey COS7 cells were transiently cotransfected with pcDNA3.1-APOBEC3G-Myc in the presence of vectors for expression of HIV-gpt(wt) or HIV-gpt(Δvif) [these are derivatives of wild-type (wt) or vif deleted (Δvif) HIV-1 with the bacterial gpt gene replacing the viral env gene; Madani & Kabat, J. Virol. […] 74, 5982–5987, 2000]. Virions were subsequently harvested from the culture media and analyzed their infectivities in HeLa-CD4 (clone HI-J) cells. […] Similar results were obtained with owl monkey kidney cells. Thus, HIV-1 Vif neutralizes human APOBEC3G-Myc in both human and monkey cells.

HIV-1 encoded proteins = experiment: Immunoblotting of HIV-1-encoded proteins (Gag, Vif) in cotransfected producer cells; format: cell-based
Description: Expression vectors: pHIV-gpt(wt) and its derivative pHIV-gpt(Δvif) were previously described (Madani & Kabat, J. Virol. 72, 10251–10255, 1998; Page et al., J Virol 64, 5270–5276, 1990; Madani & Kabat, J. Virol. 74, 5982–5987, 2000). pcDNA3.1-Vif was donated by D. Gabuzda (Dana-Farber Cancer Institute, Harvard, Boston, Mass.). Rev-dependent plasmids for expression of the Vif mutants Δ2, Δ5, Δ6, Δ7, Δ9, Δ10, Δ12 and Δ13 (Simon et al., J. Virol. 73, 2675–2681, 1999) were provided by M. Malim (Medical Research Council, Cambridge, UK) and were coexpressed with pHIV-gpt(Δvif). APOBEC3G cDNA was cloned from H9 cells (nonpermissive) by reverse transcriptase-PCR (Barnes, Proc. Natl. Acad. Sci. USA 91, 2216–2220, 1994; Sambrook et al., Molecular Cloning. A Laboratory Manual, Chapter 14, 14.5–14.34., CSHL Press, Cold Spring Harbor, 1989) using primers complementary to the 5′ and 3′ ends of APOBEC3G coding region (Sheehy et al., Nature 418, 646–650, 2002) (upstream primer, 5′-[…]-3′ (SEQ ID NO: 15) containing an XhoI restriction site [underlined]; downstream primer, 5′-[…]-3′ (SEQ ID NO: 16) containing a SfuI restriction site [underlined]). […] Virus-containing fractions were detected by immunoblotting using HIV Immunoglobulin serum (AIDS Research & Reference Reagent Program, Division of AIDS, NIAID, NIH: contributed by NABI and NHLBI). […]

HIV-gpt(wt) = experiment: Titers of HIV-gpt(wt) virions made in 293T or COS7 cells, infectivity in HeLa-CD4 cells; format: cell-based, HIV-1; conditions: producer cells 293T and COS7 cotransfected
Description: as §1

Molecule	antiviral activity of chimera: titer of virions from 293T cells in the absence of Vif (HIV-gpt(Δvif))	decrease of titers of HIV-gpt(Δvif) virions (HIV-gpt(Δvif); producer cells 293T and COS7 cotransfected)	synthesis of HIV-1 encoded proteins in the producer cells or their packaging into virions (HIV-1 encoded proteins)	expression of Vif (HIV-1 encoded proteins; FIGS. 3A and 3B)	effect on titers of HIV-gpt(wt) (HIV-gpt(wt))
B1	low titer	25–100 fold	no significant or reproducible effect	no effect	no effect
B2	antiviral activity only in the absence of Vif				
